Values joined by “and” are separate entries in the source; they are usually repeats but may differ in a detail not shown here. Equal values may be shown once. Numbered stars: 1 amine (or outer) side, 2 acyl side, 3 side chain; on linkers, the order of the positions; unused ones are H or OH. Side chains are listed from the residue outwards. Ends that are not written are not given here. * marks the point of attachment. γGlu = O=C(O)[C@H](CCC(=O)[*:2])N[*:1]; Palmitoyl = CCCCCCCCCCCCCCCC(=O)*; Ahx = NCCCCCC(=O)O
B1: g701 (peptide)
peptide: HGQGTFTSDYSK([γGlu-Palmitoyl])YLDSERAQDFVQWLERGG-NH2
modifications: N-terminus assumed
SMILES: CCCCCCCCCCCCCCCC(=O)N[C@@H](CCC(=O)NCCCC[C@H](NC(=O)[C@H](CO)NC(=O)[C@H](Cc1ccc(O)cc1)NC(=O)[C@H](CC(=O)O)NC(=O)[C@H](CO)NC(=O)[C@@H](NC(=O)[C@H](Cc1ccccc1)NC(=O)[C@@H](NC(=O)CNC(=O)[C@H](CCC(N)=O)NC(=O)CNC(=O)[C@@H](N)Cc1c[nH]cn1)[C@@H](C)O)[C@@H](C)O)C(=O)N[C@@H](Cc1ccc(O)cc1)C(=O)N[C@@H](CC(C)C)C(=O)N[C@@H](CC(=O)O)C(=O)N[C@@H](CO)C(=O)N[C@@H](CCC(=O)O)C(=O)N[C@@H](CCCNC(=N)N)C(=O)N[C@@H](C)C(=O)N[C@@H](CCC(N)=O)C(=O)N[C@@H](CC(=O)O)C(=O)N[C@@H](Cc1ccccc1)C(=O)N[C@H](C(=O)N[C@@H](CCC(N)=O)C(=O)N[C@@H](Cc1c[nH]c2ccccc12)C(=O)N[C@@H](CC(C)C)C(=O)N[C@@H](CCC(=O)O)C(=O)N[C@@H](CCCNC(=N)N)C(=O)NCC(=O)NCC(N)=O)C(C)C)C(=O)O
B2: g736 (peptide)
peptide: HGQGTFTSDYSKYLDSK([γGlu-Palmitoyl])RAADFVAWLVAGG-NH2
modifications: N-terminus assumed
SMILES: CCCCCCCCCCCCCCCC(=O)N[C@@H](CCC(=O)NCCCC[C@H](NC(=O)[C@H](CO)NC(=O)[C@H](CC(=O)O)NC(=O)[C@H](CC(C)C)NC(=O)[C@H](Cc1ccc(O)cc1)NC(=O)[C@H](CCCCN)NC(=O)[C@H](CO)NC(=O)[C@H](Cc1ccc(O)cc1)NC(=O)[C@H](CC(=O)O)NC(=O)[C@H](CO)NC(=O)[C@@H](NC(=O)[C@H](Cc1ccccc1)NC(=O)[C@@H](NC(=O)CNC(=O)[C@H](CCC(N)=O)NC(=O)CNC(=O)[C@@H](N)Cc1c[nH]cn1)[C@@H](C)O)[C@@H](C)O)C(=O)N[C@@H](CCCNC(=N)N)C(=O)N[C@@H](C)C(=O)N[C@@H](C)C(=O)N[C@@H](CC(=O)O)C(=O)N[C@@H](Cc1ccccc1)C(=O)N[C@H](C(=O)N[C@@H](C)C(=O)N[C@@H](Cc1c[nH]c2ccccc12)C(=O)N[C@@H](CC(C)C)C(=O)N[C@H](C(=O)N[C@@H](C)C(=O)NCC(=O)NCC(N)=O)C(C)C)C(C)C)C(=O)O
B3: g720 (peptide)
peptide: HGQGTFTSDYSRYLDSK([γGlu-Palmitoyl])RARDFVEWLVAGG-NH2
modifications: N-terminus assumed
SMILES: CCCCCCCCCCCCCCCC(=O)N[C@@H](CCC(=O)NCCCC[C@H](NC(=O)[C@H](CO)NC(=O)[C@H](CC(=O)O)NC(=O)[C@H](CC(C)C)NC(=O)[C@H](Cc1ccc(O)cc1)NC(=O)[C@H](CCCNC(=N)N)NC(=O)[C@H](CO)NC(=O)[C@H](Cc1ccc(O)cc1)NC(=O)[C@H](CC(=O)O)NC(=O)[C@H](CO)NC(=O)[C@@H](NC(=O)[C@H](Cc1ccccc1)NC(=O)[C@@H](NC(=O)CNC(=O)[C@H](CCC(N)=O)NC(=O)CNC(=O)[C@@H](N)Cc1c[nH]cn1)[C@@H](C)O)[C@@H](C)O)C(=O)N[C@@H](CCCNC(=N)N)C(=O)N[C@@H](C)C(=O)N[C@@H](CCCNC(=N)N)C(=O)N[C@@H](CC(=O)O)C(=O)N[C@@H](Cc1ccccc1)C(=O)N[C@H](C(=O)N[C@@H](CCC(=O)O)C(=O)N[C@@H](Cc1c[nH]c2ccccc12)C(=O)N[C@@H](CC(C)C)C(=O)N[C@H](C(=O)N[C@@H](C)C(=O)NCC(=O)NCC(N)=O)C(C)C)C(C)C)C(=O)O
B4: g744 (peptide)
peptide: HSQGTFTSDYSKYLDSRRAK([γGlu-Palmitoyl])DFVQWLEAGG-NH2
modifications: N-terminus assumed
SMILES: CCCCCCCCCCCCCCCC(=O)N[C@@H](CCC(=O)NCCCC[C@H](NC(=O)[C@H](C)NC(=O)[C@H](CCCNC(=N)N)NC(=O)[C@H](CCCNC(=N)N)NC(=O)[C@H](CO)NC(=O)[C@H](CC(=O)O)NC(=O)[C@H](CC(C)C)NC(=O)[C@H](Cc1ccc(O)cc1)NC(=O)[C@H](CCCCN)NC(=O)[C@H](CO)NC(=O)[C@H](Cc1ccc(O)cc1)NC(=O)[C@H](CC(=O)O)NC(=O)[C@H](CO)NC(=O)[C@@H](NC(=O)[C@H](Cc1ccccc1)NC(=O)[C@@H](NC(=O)CNC(=O)[C@H](CCC(N)=O)NC(=O)[C@H](CO)NC(=O)[C@@H](N)Cc1c[nH]cn1)[C@@H](C)O)[C@@H](C)O)C(=O)N[C@@H](CC(=O)O)C(=O)N[C@@H](Cc1ccccc1)C(=O)N[C@H](C(=O)N[C@@H](CCC(N)=O)C(=O)N[C@@H](Cc1c[nH]c2ccccc12)C(=O)N[C@@H](CC(C)C)C(=O)N[C@@H](CCC(=O)O)C(=O)N[C@@H](C)C(=O)NCC(=O)NCC(N)=O)C(C)C)C(=O)O
B5: g737 (peptide)
peptide: HGEGTFTSDYSKYLDSK([γGlu-Palmitoyl])RAADFVAWLVAGG-NH2
modifications: N-terminus assumed
SMILES: CCCCCCCCCCCCCCCC(=O)N[C@@H](CCC(=O)NCCCC[C@H](NC(=O)[C@H](CO)NC(=O)[C@H](CC(=O)O)NC(=O)[C@H](CC(C)C)NC(=O)[C@H](Cc1ccc(O)cc1)NC(=O)[C@H](CCCCN)NC(=O)[C@H](CO)NC(=O)[C@H](Cc1ccc(O)cc1)NC(=O)[C@H](CC(=O)O)NC(=O)[C@H](CO)NC(=O)[C@@H](NC(=O)[C@H](Cc1ccccc1)NC(=O)[C@@H](NC(=O)CNC(=O)[C@H](CCC(=O)O)NC(=O)CNC(=O)[C@@H](N)Cc1c[nH]cn1)[C@@H](C)O)[C@@H](C)O)C(=O)N[C@@H](CCCNC(=N)N)C(=O)N[C@@H](C)C(=O)N[C@@H](C)C(=O)N[C@@H](CC(=O)O)C(=O)N[C@@H](Cc1ccccc1)C(=O)N[C@H](C(=O)N[C@@H](C)C(=O)N[C@@H](Cc1c[nH]c2ccccc12)C(=O)N[C@@H](CC(C)C)C(=O)N[C@H](C(=O)N[C@@H](C)C(=O)NCC(=O)NCC(N)=O)C(C)C)C(C)C)C(=O)O
B6: g318 (peptide)
peptide: HSQGTFTSDYSKYLDSRRAQDFVQWLVAGGSSGGSSK(Palmitoyl)-NH2
modifications: N-terminus assumed
SMILES: CCCCCCCCCCCCCCCC(=O)NCCCC[C@H](NC(=O)[C@H](CO)NC(=O)[C@H](CO)NC(=O)CNC(=O)CNC(=O)[C@H](CO)NC(=O)[C@H](CO)NC(=O)CNC(=O)CNC(=O)[C@H](C)NC(=O)[C@@H](NC(=O)[C@H](CC(C)C)NC(=O)[C@H](Cc1c[nH]c2ccccc12)NC(=O)[C@H](CCC(N)=O)NC(=O)[C@@H](NC(=O)[C@H](Cc1ccccc1)NC(=O)[C@H](CC(=O)O)NC(=O)[C@H](CCC(N)=O)NC(=O)[C@H](C)NC(=O)[C@H](CCCNC(=N)N)NC(=O)[C@H](CCCNC(=N)N)NC(=O)[C@H](CO)NC(=O)[C@H](CC(=O)O)NC(=O)[C@H](CC(C)C)NC(=O)[C@H](Cc1ccc(O)cc1)NC(=O)[C@H](CCCCN)NC(=O)[C@H](CO)NC(=O)[C@H](Cc1ccc(O)cc1)NC(=O)[C@H](CC(=O)O)NC(=O)[C@H](CO)NC(=O)[C@@H](NC(=O)[C@H](Cc1ccccc1)NC(=O)[C@@H](NC(=O)CNC(=O)[C@H](CCC(N)=O)NC(=O)[C@H](CO)NC(=O)[C@@H](N)Cc1c[nH]cn1)[C@@H](C)O)[C@@H](C)O)C(C)C)C(C)C)C(N)=O
B7: g746 (peptide)
peptide: HSQGTFTSDYSKYLDSRRAQDFVK([γGlu-Palmitoyl])WLEAGG-NH2
modifications: N-terminus assumed
SMILES: CCCCCCCCCCCCCCCC(=O)N[C@@H](CCC(=O)NCCCC[C@H](NC(=O)[C@@H](NC(=O)[C@H](Cc1ccccc1)NC(=O)[C@H](CC(=O)O)NC(=O)[C@H](CCC(N)=O)NC(=O)[C@H](C)NC(=O)[C@H](CCCNC(=N)N)NC(=O)[C@H](CCCNC(=N)N)NC(=O)[C@H](CO)NC(=O)[C@H](CC(=O)O)NC(=O)[C@H](CC(C)C)NC(=O)[C@H](Cc1ccc(O)cc1)NC(=O)[C@H](CCCCN)NC(=O)[C@H](CO)NC(=O)[C@H](Cc1ccc(O)cc1)NC(=O)[C@H](CC(=O)O)NC(=O)[C@H](CO)NC(=O)[C@@H](NC(=O)[C@H](Cc1ccccc1)NC(=O)[C@@H](NC(=O)CNC(=O)[C@H](CCC(N)=O)NC(=O)[C@H](CO)NC(=O)[C@@H](N)Cc1c[nH]cn1)[C@@H](C)O)[C@@H](C)O)C(C)C)C(=O)N[C@@H](Cc1c[nH]c2ccccc12)C(=O)N[C@@H](CC(C)C)C(=O)N[C@@H](CCC(=O)O)C(=O)N[C@@H](C)C(=O)NCC(=O)NCC(N)=O)C(=O)O

What follows are binders tested against human glucagon receptor (human, UniProt P47871 26-477) (assay: cell-based or functional assay).
Chain of human glucagon receptor (P47871 26-477): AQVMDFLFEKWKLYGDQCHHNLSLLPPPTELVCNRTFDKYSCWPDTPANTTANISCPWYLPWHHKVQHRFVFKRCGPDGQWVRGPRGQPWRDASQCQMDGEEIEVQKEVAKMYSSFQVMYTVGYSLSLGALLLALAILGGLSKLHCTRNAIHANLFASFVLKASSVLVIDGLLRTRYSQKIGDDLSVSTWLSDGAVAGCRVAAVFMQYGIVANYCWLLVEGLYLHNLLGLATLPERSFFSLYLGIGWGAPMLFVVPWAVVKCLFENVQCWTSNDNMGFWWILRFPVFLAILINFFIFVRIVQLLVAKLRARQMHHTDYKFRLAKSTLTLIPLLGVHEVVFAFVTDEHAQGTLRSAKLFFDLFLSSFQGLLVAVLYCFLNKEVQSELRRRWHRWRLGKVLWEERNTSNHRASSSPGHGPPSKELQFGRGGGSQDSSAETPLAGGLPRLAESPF

Row | cAMP EC50 (assay 1) | Binder
1 | 43.6 pM | HSQGTFTSDYSKYLDSERAK([Ahx-Palmitoyl])DFVAWLERGG-NH2 (not fully specified) [g787]
2 | 3830 pM | B1
3 | 919 pM and 920 pM | B2
4 | 352 pM | B3
5 | 39.2 pM | B4
6 | 10.3 pM | HSQGTFTSDYSKYLDSRRAQDFVQWLVAGGGGGGK-NH2 [g325]
7 | 734000 pM | B5
8 | 59.6 pM | HSQGTFTSDYSKYLDSRRAQDFVQWLVAGGSGSGSG-NH2 [g402]
9 | 9040 pM | B6
10 | 35.4 pM | B7

The binders below were run against human GLP-1 receptor (human, UniProt P43220 24-463) (assay: cell-based or functional assay).
Chain of human GLP-1 receptor (P43220 24-463): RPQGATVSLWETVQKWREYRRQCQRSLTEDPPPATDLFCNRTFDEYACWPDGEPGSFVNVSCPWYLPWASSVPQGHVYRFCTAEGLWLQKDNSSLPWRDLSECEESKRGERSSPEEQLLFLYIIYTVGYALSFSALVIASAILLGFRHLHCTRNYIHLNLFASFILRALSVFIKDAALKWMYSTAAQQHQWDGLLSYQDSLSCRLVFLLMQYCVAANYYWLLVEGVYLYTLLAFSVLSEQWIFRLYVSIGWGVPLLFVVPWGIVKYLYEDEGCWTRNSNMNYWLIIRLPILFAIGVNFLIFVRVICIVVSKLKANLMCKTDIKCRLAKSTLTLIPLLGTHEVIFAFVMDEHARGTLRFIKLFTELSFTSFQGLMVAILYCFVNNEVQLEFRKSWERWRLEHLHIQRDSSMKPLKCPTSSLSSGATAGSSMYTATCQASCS

Row | cAMP EC50 (assay 1) | Binder
11 | 2630 pM | HSQGTFTSDYSKYLDSRRAQDFVQWLVAGGSSGGSSK-NH2 [g317]
12 | 6650 pM | HSQGTFTSDYSKYLDSERAK([Ahx-Palmitoyl])DFVAWLERGG-NH2 (not fully specified) [g787]
13 | 7400 pM | B1
14 | 85.4 pM | B2
15 | 53.4 pM | B3
16 | 2450 pM | B4
17 | 26.1 pM | HSQGTFTSDYSKYLDSRRAQDFVQWLVAGGGGGGK-NH2 [g325]
18 | 81.4 pM | B5
19 | 85.7 pM | HSQGTFTSDYSKYLDSRRAQDFVQWLVAGGSGSGSG-NH2 [g402]
20 | 1140 pM | B6
21 | 11500 pM | B7

Reference: patent US20190185537A1 (AstraZeneca / MedImmune, published 2019)
